Measured values: patent publication US20180355059A1 (PHARMAEXPLORER, published 2018)

How the values were obtained:
[1] = target: T1, recombinant cyno monkey PCSK9 protein (cyno monkey, UniProt A8T666 31-692 (rhesus entry), limits assumed, biotin-labelled in the ELISA (Biotin labeling kit)); experiment: ELISA, biotin-cyno PCSK9 on streptavidin plate; antibody 0.0067 nM
T1 construct: also called cyno PCSK9; Cyno Monkey PCSK9-His
Protocol: (§1) The next day, the plates were washed twice with wash buffer [0.01% (v/v) Tween 20], then blocked with blocking buffer [0.01% (v/v) 0.1% BSA (w/w) Tween 20] at room temperature for 2 hours. […] Unbound PCSK9 proteins were removed by washing the plate three times with wash buffer [0.01% (v/v) Tween 20]. […] The plates were washed twice with wash buffer [0.01% (v/v) Tween 20], and 200 uL HRP-conjugated secondary antibody (Sigma) was added to each well and incubated for 2 hours at 37° C. After the plates were washed three times with wash buffer, 100 ul TMB substrate were added to each well and incubated for 30 minutes at room temperature. 100 ul stop solution (0.1N HCl) were added to each well to stop the reaction.

[2] = target: T2, recombinant human PCSK9 protein, His-tagged (Immunogen A, hPCSK9-His) (human, UniProt Q8NBP7 31-692, limits assumed, biotin-labelled in the ELISA and blocking assays (Biotin labeling kit)); experiment: blocking ELISA, biotin-hPCSK9-His on coated LDLR ECD-His; antibody 40 nM
T2 construct: also called human PCSK9-His; recombinant hPCSK9-His; not shown: His tag

[3] = target: T2, recombinant human PCSK9 protein, …; experiment: blocking ELISA, biotin-hPCSK9-His on coated LDLR ECD-His; antibody 200 nM
Protocol: (§2) Purified LDLR^ECD-His was diluted with PBS to a final concentration of 1.0 ug/ml, and 100 uL of diluted LDLR^ECD-His were added to each well of 96-well plate that was then sealed with plastic film and incubated at 4° C. overnight. The plate was washed twice with wash buffer [PBS+0.01% (v/v) Tween 20] and incubated with blocking buffer [PBS+0.01% (v/v) BSA+1% Tween20 (w/w)] at room temperature for 2 hours. […] The plate was washed three times with wash buffer [0.01% (v/v) Tween 20]. 100 uL HRP-conjugated streptavidin (Sigma) were then added to each well and incubated at 37° C. for 1 hour. The plate was then washed three times with wash buffer, and 100 uL TMB substrate were added to each well. After 15 minutes of incubation at room temperature, the reaction was stopped by adding 50 uL stop solution (0.1N HCl).

[4] = target: T1, recombinant cyno monkey PCSK9 protein; experiment: ELISA, biotin-cyno PCSK9 on streptavidin plate; antibody 0.67 nM
Protocol: as §1

[5] = target: T2, recombinant human PCSK9 protein, …; experiment: blocking ELISA, biotin-hPCSK9-His on coated LDLR ECD-His; antibody 0.01 nM
Protocol: as §2

[6] = target: T1, recombinant cyno monkey PCSK9 protein; experiment: ELISA, biotin-cyno PCSK9 on streptavidin plate; antibody 6.67 nM
Protocol: as §1

[7] = target: T1, recombinant cyno monkey PCSK9 protein; experiment: ELISA, biotin-cyno PCSK9 on streptavidin plate; antibody 0 nM (blank)
Protocol: as §1

[8] = target: T2, recombinant human PCSK9 protein, …; experiment: ELISA, biotin-hPCSK9-His on streptavidin plate; antibody 0.67 nM
Protocol: as §1

[9] = target: T2, recombinant human PCSK9 protein, …; experiment: ELISA, biotin-hPCSK9-His on streptavidin plate; antibody 0.000067 nM
Protocol: as §1

[10] = target: T2, recombinant human PCSK9 protein, …; experiment: ELISA, biotin-hPCSK9-His on streptavidin plate; antibody 0.00067 nM
Protocol: as §1

[11] = target: T2, recombinant human PCSK9 protein, …; experiment: ELISA, biotin-hPCSK9-His on streptavidin plate; antibody 66.67 nM
Protocol: as §1

[12] = target: T2, recombinant human PCSK9 protein, …; experiment: blocking ELISA, biotin-hPCSK9-His on coated LDLR ECD-His; antibody 0.06 nM
Protocol: as §2

[13] = target: T2, recombinant human PCSK9 protein, …; experiment: blocking ELISA, biotin-hPCSK9-His on coated LDLR ECD-His; antibody 0.32 nM
Protocol: as §2

[14] = target: T1, recombinant cyno monkey PCSK9 protein; experiment: ELISA, biotin-cyno PCSK9 on streptavidin plate; antibody 0.00067 nM
Protocol: as §1

[15] = target: T2, recombinant human PCSK9 protein, …; experiment: ELISA, biotin-hPCSK9-His on streptavidin plate; antibody 0 nM (blank)
Protocol: as §1

[16] = target: T1, recombinant cyno monkey PCSK9 protein; experiment: ELISA, biotin-cyno PCSK9 on streptavidin plate; antibody 0.067 nM
Protocol: as §1

[17] = target: T2, recombinant human PCSK9 protein, …; experiment: blocking ELISA, biotin-hPCSK9-His on coated LDLR ECD-His; antibody 8 nM
Protocol: as §2

[18] = target: T2, recombinant human PCSK9 protein, …; experiment: ELISA, biotin-hPCSK9-His on streptavidin plate; antibody 0.067 nM
Protocol: as §1

[19] = target: T2, recombinant human PCSK9 protein, …; experiment: ELISA, biotin-hPCSK9-His on streptavidin plate; antibody 6.67 nM
Protocol: as §1

[20] = target: T2, recombinant human PCSK9 protein, …; experiment: blocking ELISA, biotin-hPCSK9-His on coated LDLR ECD-His; antibody 1.6 nM
Protocol: as §2

[21] = target: T2, recombinant human PCSK9 protein, …; experiment: ELISA, biotin-hPCSK9-His on streptavidin plate; antibody 0.0067 nM
Protocol: as §1

[22] = target: T1, recombinant cyno monkey PCSK9 protein; experiment: ELISA, biotin-cyno PCSK9 on streptavidin plate; antibody 66.67 nM
Protocol: as §1

T1 sequence (A8T666 31-692 limits assumed): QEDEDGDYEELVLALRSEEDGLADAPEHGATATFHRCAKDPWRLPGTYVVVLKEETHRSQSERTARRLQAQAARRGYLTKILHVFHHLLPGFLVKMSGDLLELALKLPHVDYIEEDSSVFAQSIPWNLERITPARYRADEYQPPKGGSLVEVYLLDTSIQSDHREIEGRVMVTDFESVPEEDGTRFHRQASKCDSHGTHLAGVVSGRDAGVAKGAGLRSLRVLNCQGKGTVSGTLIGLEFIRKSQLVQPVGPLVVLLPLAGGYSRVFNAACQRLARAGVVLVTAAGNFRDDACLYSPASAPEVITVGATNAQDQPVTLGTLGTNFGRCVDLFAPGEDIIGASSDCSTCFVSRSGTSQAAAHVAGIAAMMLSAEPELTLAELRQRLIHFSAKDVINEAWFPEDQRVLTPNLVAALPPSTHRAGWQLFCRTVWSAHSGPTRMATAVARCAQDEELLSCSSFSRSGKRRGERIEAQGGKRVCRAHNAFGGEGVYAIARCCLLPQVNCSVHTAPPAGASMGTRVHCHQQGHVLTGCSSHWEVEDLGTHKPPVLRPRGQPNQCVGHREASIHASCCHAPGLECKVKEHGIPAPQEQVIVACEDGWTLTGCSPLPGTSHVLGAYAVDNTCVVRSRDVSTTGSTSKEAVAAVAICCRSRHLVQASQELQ

OD450 nm [1]: 0.25 OD450 nm | OD450 nm (PCSK9 bound to LDLR) [2]: 0.45 OD450 nm | OD450 nm (PCSK9 bound to LDLR) [3]: 0.63 OD450 nm | OD450 nm [4]: 2.26 OD450 nm | OD450 nm (PCSK9 bound to LDLR) [5]: 1.19 OD450 nm | OD450 nm [6]: 2.58 OD450 nm | OD450 nm [7]: 0.25 OD450 nm | OD450 nm [8]: 2.73 OD450 nm | OD450 nm [9]: 0.17 OD450 nm | OD450 nm [10]: 0.18 OD450 nm | OD450 nm [11]: 2.86 OD450 nm | OD450 nm (PCSK9 bound to LDLR) [12]: 1.25 OD450 nm | OD450 nm (PCSK9 bound to LDLR) [13]: 1.16 OD450 nm | OD450 nm [14]: 0.23 OD450 nm | OD450 nm [15]: 0.2 OD450 nm | OD450 nm [16]: 0.77 OD450 nm | OD450 nm (PCSK9 bound to LDLR) [17]: 0.53 OD450 nm | OD450 nm [18]: 1 OD450 nm | OD450 nm [19]: 2.89 OD450 nm | OD450 nm (PCSK9 bound to LDLR) [20]: 0.97 OD450 nm | OD450 nm [21]: 0.3 OD450 nm | OD450 nm [22]: 2.87 OD450 nm
B1: 96F8C6, chimeric anti-PCSK9 mAb purified from hybridoma (antibody, V domains shown)
VH: EVQLVESGGGLVQPGGSLRLSCAASGITFSSYWMSWVRQAPGKGLEWVANIKQDGSEKYYVDSVKGRFTISRDIAKNSLYLQMNSLRAEDTAVYYCARDRGTYYYGSGSYNYYYYGMDVWGQGTTVTVSS
VL: not shown
notes: From Harbour H2L2 mice: human variable regions, rat constant regions
